Data taken from PMC7440162 (Cell, 2020).
One block for each binder: values may come before it.

Assays:
Assay in all cases: SPR
[1] = biological target: T1, ICAM5 ECD-Fc (human, UniProt Q9UMF0 32-835, biotin on the AviTag (as SPR ligand))
T1 sequence: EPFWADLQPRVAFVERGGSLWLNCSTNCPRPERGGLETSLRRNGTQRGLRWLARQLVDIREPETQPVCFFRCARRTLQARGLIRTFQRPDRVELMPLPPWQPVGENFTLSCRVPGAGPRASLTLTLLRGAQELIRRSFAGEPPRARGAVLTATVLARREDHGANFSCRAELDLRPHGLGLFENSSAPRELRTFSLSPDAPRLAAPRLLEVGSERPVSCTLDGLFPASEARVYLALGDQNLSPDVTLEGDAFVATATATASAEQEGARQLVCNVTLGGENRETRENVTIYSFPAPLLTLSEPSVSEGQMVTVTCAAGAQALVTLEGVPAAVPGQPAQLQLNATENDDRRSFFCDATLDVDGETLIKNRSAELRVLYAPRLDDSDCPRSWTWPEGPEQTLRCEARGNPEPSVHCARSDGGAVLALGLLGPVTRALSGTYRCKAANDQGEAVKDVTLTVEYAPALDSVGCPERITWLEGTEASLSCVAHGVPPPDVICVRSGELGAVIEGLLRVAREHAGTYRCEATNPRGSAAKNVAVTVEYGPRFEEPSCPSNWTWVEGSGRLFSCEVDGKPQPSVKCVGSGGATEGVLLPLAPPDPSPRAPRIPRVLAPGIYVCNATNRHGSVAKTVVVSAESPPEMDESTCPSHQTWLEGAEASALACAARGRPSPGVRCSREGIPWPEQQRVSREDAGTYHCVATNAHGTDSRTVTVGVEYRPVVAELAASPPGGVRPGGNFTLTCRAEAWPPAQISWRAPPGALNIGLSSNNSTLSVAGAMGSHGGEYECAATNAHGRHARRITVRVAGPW

[2] = biological target: LTF-Fc (human, UniProt P02788, biotin on the AviTag (as SPR ligand))
[3] = biological target: T2, PTPRD ECD-Fc (human, UniProt P23468 21-1265)
T2 sequence: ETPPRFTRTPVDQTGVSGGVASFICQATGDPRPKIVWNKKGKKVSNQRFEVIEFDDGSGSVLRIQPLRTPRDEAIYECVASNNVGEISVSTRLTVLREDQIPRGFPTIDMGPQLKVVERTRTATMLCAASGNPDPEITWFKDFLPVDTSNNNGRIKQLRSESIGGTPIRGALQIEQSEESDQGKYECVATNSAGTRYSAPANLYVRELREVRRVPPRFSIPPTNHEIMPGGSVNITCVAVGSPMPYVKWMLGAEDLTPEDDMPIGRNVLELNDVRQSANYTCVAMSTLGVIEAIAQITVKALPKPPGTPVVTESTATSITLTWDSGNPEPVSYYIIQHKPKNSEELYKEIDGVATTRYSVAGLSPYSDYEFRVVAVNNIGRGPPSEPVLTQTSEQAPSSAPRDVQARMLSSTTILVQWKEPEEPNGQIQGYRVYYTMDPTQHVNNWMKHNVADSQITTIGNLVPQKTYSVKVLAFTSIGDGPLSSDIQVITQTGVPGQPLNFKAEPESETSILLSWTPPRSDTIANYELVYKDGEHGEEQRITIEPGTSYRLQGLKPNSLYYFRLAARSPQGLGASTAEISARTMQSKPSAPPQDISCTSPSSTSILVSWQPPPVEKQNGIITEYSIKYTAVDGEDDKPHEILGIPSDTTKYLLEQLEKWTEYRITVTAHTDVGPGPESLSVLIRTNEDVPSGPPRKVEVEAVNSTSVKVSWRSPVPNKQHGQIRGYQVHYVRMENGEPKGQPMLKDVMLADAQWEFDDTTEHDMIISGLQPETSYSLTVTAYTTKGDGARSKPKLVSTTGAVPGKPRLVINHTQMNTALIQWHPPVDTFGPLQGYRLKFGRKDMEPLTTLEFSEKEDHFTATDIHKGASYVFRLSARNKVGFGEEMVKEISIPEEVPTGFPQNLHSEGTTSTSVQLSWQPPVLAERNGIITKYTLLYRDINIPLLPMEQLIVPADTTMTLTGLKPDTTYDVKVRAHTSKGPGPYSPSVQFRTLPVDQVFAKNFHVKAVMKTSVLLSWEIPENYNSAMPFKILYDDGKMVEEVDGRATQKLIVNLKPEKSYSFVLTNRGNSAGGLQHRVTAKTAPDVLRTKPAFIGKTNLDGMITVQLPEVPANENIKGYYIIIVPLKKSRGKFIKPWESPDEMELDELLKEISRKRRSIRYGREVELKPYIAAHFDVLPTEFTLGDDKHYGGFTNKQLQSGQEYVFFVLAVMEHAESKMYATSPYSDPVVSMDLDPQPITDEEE

[4] = biological target: T3, PTPRF ECD-Fc (human, UniProt P10586 30-1263)
T3 sequence: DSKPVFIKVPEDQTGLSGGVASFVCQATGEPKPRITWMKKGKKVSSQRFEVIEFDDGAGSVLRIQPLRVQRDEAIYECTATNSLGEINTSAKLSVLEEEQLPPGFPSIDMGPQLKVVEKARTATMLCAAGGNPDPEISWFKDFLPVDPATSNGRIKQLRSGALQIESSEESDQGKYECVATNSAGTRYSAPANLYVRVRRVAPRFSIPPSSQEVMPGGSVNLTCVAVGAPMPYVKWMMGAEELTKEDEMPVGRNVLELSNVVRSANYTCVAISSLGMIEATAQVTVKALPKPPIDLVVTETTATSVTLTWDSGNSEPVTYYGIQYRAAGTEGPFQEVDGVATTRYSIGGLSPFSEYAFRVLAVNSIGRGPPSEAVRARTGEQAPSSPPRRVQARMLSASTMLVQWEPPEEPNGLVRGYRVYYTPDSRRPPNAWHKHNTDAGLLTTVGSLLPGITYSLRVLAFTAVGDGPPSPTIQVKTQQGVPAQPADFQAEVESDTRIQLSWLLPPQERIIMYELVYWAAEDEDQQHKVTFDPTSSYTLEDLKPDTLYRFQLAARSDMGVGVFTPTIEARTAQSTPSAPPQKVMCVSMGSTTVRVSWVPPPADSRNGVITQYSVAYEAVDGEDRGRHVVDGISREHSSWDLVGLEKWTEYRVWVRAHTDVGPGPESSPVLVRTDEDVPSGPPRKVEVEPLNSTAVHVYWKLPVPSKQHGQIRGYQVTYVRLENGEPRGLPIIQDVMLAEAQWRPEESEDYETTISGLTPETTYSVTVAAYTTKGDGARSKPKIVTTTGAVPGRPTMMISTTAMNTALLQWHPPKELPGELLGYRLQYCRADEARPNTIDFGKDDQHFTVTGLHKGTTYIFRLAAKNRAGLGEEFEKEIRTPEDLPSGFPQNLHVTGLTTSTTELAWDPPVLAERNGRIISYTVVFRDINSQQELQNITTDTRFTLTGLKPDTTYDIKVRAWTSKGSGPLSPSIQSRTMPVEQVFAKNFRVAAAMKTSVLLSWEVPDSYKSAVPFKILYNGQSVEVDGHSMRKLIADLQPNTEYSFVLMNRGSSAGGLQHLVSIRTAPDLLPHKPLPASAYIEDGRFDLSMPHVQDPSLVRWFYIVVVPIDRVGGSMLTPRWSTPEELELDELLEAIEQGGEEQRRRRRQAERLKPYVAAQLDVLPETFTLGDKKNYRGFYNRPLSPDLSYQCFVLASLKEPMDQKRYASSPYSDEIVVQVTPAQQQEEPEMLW

[5] = biological target: T4, PTPRS ECD-Fc (human, UniProt Q13332 30-1282)
T4 sequence: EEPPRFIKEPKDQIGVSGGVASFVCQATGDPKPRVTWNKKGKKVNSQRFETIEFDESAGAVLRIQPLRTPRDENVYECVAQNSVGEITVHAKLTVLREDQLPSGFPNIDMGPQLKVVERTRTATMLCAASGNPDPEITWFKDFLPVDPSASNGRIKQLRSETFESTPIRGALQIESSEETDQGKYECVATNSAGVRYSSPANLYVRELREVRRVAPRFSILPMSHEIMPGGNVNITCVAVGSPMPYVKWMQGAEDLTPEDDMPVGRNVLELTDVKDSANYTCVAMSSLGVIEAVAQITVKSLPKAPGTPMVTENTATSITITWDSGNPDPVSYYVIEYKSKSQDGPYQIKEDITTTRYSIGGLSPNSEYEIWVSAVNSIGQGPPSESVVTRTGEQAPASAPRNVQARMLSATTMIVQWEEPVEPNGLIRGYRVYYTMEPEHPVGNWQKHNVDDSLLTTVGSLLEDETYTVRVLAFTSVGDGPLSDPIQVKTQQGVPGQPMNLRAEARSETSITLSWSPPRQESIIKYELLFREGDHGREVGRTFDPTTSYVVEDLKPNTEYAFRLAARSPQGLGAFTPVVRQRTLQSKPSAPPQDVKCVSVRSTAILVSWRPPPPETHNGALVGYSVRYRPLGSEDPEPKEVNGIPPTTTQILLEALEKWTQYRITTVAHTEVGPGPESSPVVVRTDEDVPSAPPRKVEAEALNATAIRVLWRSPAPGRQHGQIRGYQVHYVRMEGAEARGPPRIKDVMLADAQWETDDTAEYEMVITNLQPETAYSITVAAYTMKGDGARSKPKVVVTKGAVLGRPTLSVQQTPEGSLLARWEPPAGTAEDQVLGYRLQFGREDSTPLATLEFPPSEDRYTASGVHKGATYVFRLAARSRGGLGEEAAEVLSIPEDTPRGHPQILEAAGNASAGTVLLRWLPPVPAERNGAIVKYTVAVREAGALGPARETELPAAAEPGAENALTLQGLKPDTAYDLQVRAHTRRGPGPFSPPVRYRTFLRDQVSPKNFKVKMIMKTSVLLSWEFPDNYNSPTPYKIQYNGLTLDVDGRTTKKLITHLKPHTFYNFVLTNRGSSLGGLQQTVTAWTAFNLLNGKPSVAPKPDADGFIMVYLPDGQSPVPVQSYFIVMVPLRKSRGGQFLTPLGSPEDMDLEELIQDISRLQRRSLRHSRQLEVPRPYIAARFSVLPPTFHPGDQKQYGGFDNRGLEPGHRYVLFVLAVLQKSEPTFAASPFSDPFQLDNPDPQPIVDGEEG

LTF-Fc, sequence (P02788 20-710): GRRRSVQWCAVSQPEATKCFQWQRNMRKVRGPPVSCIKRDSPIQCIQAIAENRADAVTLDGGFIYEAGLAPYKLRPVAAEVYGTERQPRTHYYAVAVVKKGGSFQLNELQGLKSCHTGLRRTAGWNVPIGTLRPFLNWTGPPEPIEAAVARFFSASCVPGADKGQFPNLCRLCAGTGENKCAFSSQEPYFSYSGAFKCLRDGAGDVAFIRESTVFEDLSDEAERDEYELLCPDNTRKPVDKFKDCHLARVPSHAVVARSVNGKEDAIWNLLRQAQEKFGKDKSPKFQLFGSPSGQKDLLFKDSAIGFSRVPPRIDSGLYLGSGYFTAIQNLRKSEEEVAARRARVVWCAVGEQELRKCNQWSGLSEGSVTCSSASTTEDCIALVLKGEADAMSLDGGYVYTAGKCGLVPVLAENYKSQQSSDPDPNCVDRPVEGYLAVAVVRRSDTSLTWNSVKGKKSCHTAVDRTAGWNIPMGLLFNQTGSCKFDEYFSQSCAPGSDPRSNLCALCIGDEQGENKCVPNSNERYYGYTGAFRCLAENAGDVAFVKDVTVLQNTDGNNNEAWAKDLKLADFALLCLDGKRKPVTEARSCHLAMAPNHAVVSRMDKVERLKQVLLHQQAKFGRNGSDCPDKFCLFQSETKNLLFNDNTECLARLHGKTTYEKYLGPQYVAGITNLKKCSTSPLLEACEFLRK

binding result [1]: binds
binding result [2]: binds
B1: human ISLR2 ECD-Fc (Fc fusion)
chain: SCPEPCACVDKYAHQFADCAYKELREVPEGLPANVTTLSLSANKITVLRRGAFADVTQVTSLWLAHNEVRTVEPGALAVLSQLKNLDLSHNFISSFPWSDLRNLSALQLLKMNHNRLGSLPRDALGALPDLRSLRINNNRLRTLAPGTFDALSALSHLQLYHNPFHCGCGLVWLQAWAASTRVSLPEPDSIACASPPALQGVPVYRLPALPCAPPSVHLSAEPPLEAPGTPLRAGLAFVLHCIADGHPTPRLQWQLQIPGGTVVLEPPVLSGEDDGVGAEEGEGEGDGDLLTQTQAQTPTPAPAWPAPPATPRFLALANGSLLVPLLSAKEAGVYTCRAHNELGANSTSIRVAVAATGPPKHAPGAGGEPDGQAPTSERKSTAKGRGNSVLPSKPEGKIKGQGLAKVSILGETETEPEEDTSEGEEAEDQILADPAEEQRCGNGDPSRYVSNHAFNQSAELKPHVFELGVIALDVAEREARVQLTPLAARWGPGPGGAGGAPRPGRRPLRLLYLCPAGGGAAVQWSRVEEGVNAYWFRGLRPGTNYSVCLALAGEACHVQVVFSTKKELPS
modifications: biotin on the AviTag (as SPR ligand)

binding result [3]: binds
binding result [4]: binds
binding result [5]: binds
B2: SALM3 ECD-Fc (Fc fusion)
chain: CPLPCVCQNLSESLSTLCAHRGLLFVPPNVDRRTVELRLADNFIQALGPPDFRNMTGLVDLTLSRNAITRIGARAFGDLESLRSLHLDGNRLVELGTGSLRGPVNLQHLILSGNQLGRIAPGAFDDFLESLEDLDLSYNNLRQVPWAGIGAMPALHTLNLDHNLIDALPPGAFAQLGQLSRLDLTSNRLATLAPDPLFSRGRDAEASPAPLVLSFSGNPLHCNCELLWLRRLARPDDLETCASPPGLAGRYFWAVPEGEFSCEPPLIARHTQRLWVLEGQRATLRCRALGDPAPTMHWVGPDDRLVGNSSRARAFPNGTLEIGVTGAGDAGGYTCIATNPAGEATARVELRVLALPHGGNSSAEGGRPGPSDIAASARTAAEGEGTLESEPAVQVTEVTATSGLVSWGPGRPADPVWMFQIQYNSSEDETLIYRIVPASSHHFLLKHLVPGADYDLCLLALSPAAGPSDLTATRLLGCAHFSTLPASPLCHALQAHVLGGTL
modifications: biotin on the AviTag (as SPR ligand)

binding result [3]: binds
binding result [4]: binds
binding result [5]: binds
B3: SALM5 ECD-Fc (Fc fusion)
chain: QICPKRCVCQILSPNLATLCAKKGLLFVPPNIDRRTVELRLADNFVTNIKRKDFANMTSLVDLTLSRNTISFITPHAFADLRNLRALHLNSNRLTKITNDMFSGLSNLHHLILNNNQLTLISSTAFDDVFALEELDLSYNNLETIPWDAVEKMVSLHTLSLDHNMIDNIPKGTFSHLHKMTRLDVTSNKLQKLPPDPLFQRAQVLATSGIISPSTFALSFGGNPLHCNCELLWLRRLSREDDLETCASPPLLTGRYFWSIPEEEFLCEPPLITRHTHEMRVLEGQRATLRCKARGDPEPAIHWISPEGKLISNATRSLVYDNGTLDILITTVKDTGAFTCIASNPAGEATQIVDLHIIKLPHLLNSTNHIHEPDPGSSDISTSTKSGSNTSSSNGDTKLSQDKIVVAEATSSTALLKFNFQRNIPGIRMFQIQYNGTYDDTLVYRMIPPTSKTFLVNNLAAGTMYDLCVLAIYDDGITSLTATRVVGCIQFTTEQDYVRCHFMQSQFLGGTM
modifications: biotin on the AviTag (as SPR ligand)
